Assay results published in PMC3135476 (Molecular Biology of the Cell, 2011).

Experiments:
[1] = target: microtubules (U2OS cells) (human (endogenous in U2OS)) (UniProt P07437); test: co-sedimentation
[2] = target: KRIT1 FERM domain, residues 417-736 (wild type) (human, UniProt O00522 417-736); test: ITC
[3] = target: KRIT1(R452E) FERM domain, residues 417-736 (human, UniProt O00522 417-736, R452E); test: ITC
Sequence of KRIT1(R452E) FERM domain, residues 417-736 (O00522 417-736 R452E): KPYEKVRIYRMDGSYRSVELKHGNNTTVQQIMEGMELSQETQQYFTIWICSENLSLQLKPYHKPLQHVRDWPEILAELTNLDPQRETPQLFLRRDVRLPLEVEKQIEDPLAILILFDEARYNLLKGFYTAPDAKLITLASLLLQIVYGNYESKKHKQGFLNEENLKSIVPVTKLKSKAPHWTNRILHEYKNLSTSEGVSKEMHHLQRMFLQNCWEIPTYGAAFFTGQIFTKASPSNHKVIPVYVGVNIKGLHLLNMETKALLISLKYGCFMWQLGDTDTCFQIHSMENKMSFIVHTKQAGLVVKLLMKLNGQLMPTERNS

Sequence of KRIT1 FERM domain, residues 417-736 (wild type) (O00522 417-736): as the sequence (O00522 417-736 R452E) above, with E36R counted along it
Sequence of microtubules (U2OS cells) (human (endogenous in U2OS)) (P07437 whole entry, looked up, the tested form may be a part): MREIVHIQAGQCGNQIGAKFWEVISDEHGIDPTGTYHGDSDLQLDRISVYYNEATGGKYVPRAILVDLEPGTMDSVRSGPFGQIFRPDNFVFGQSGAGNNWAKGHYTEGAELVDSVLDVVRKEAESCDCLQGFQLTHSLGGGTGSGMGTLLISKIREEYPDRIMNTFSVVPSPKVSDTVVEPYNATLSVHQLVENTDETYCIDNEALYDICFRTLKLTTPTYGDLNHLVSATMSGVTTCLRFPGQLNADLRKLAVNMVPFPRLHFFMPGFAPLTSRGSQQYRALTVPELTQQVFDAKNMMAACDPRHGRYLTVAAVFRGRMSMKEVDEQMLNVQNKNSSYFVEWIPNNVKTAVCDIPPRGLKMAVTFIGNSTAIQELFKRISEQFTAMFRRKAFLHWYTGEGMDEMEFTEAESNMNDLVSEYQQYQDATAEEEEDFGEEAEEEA

GFP-fused KRIT1(R452E) (U2OS) (from UniProt O00522 1-736) (natural protein)
fold increase in association with microtubules over wild-type KRIT1 [1]: 8 fold

B1: Human Rap1 isoform Rap1B (residues 1-167) bound to GMP-PNP (domain or fragment, UniProt P61224 1-167, looked up)
chain: MREYKLVVLGSGGVGKSALTVQFVQGIFVEKYDPTIEDSYRKQVEVDAQQCMLEILDTAGTEQFTAMRDLYMKNGQGFALVYSITAQSTFNDLQDLREQILRVKDTDDVPMILVGNKCDLEDERVVGKEQGQNLARQWNNCAFLESSAKSKINVNEIFYDLVRQINR
Kd [2]: 1.8 ± 0.25 µM
Kd [3]: 67 ± 18.7 µM
